Laboratory results from patent US20180030151A1 (MOGAM INSTITUTE FOR BIOMEDICAL RESEARCH, published 2018).
Where two headings read alike, the source gives them in different places.

Experiments:
Test in all cases: cell-based or functional assay
[1] = target: T1, recombinant human TFPI (tissue factor pathway inhibitor) (human, UniProt P10646 29-304)
[2] = target: T1, recombinant human TFPI (tissue factor …); remark: listed apart in the source
[3] = target: T1, recombinant human TFPI (tissue factor …); remark: listed apart in the source
[4] = target: T1, recombinant human TFPI (tissue factor …); remark: listed apart in the source
[5] = target: T1, recombinant human TFPI (tissue factor …); remark: listed apart in the source
[6] = target: T1, recombinant human TFPI (tissue factor …); remark: listed apart in the source
[7] = target: T1, recombinant human TFPI (tissue factor …); remark: listed apart in the source

A405, TF/FVIIa/FX complex assay, Ab 1.56 nM [1]: 0.16
A405, TF/FVIIa/FX complex assay, Ab 3.13 nM [1]: 0.158
A405, TF/FVIIa/FX complex assay, Ab 6.25 nM [1]: 0.183
A405, TF/FVIIa/FX complex assay, Ab 12.5 nM [1]: 0.253
A405, TF/FVIIa/FX complex assay, Ab 25 nM [1]: 0.894
A405, TF/FVIIa/FX complex assay, Ab 50 nM [1]: 0.938
A405, TF/FVIIa/FX complex assay, Ab 100 nM [1]: 0.931
A405, TF/FVIIa/FX complex assay (FX 5 nM), Ab 1.56 nM [2]: 0.045
A405, TF/FVIIa/FX complex assay (FX 5 nM), Ab 3.13 nM [2]: 0.049
A405, TF/FVIIa/FX complex assay (FX 5 nM), Ab 6.25 nM [2]: 0.05
A405, TF/FVIIa/FX complex assay (FX 5 nM), Ab 12.5 nM [2]: 0.072
A405, TF/FVIIa/FX complex assay (FX 5 nM), Ab 25 nM [2]: 0.154
A405, TF/FVIIa/FX complex assay (FX 5 nM), Ab 50 nM [2]: 0.509
A405, TF/FVIIa/FX complex assay (FX 5 nM), Ab 100 nM [2]: 0.745
A405, TF/FVIIa/FX complex assay, Ab 1.56 nM [3]: 0.045
A405, TF/FVIIa/FX complex assay, Ab 3.13 nM [3]: 0.047
A405, TF/FVIIa/FX complex assay, Ab 6.25 nM [3]: 0.05
A405, TF/FVIIa/FX complex assay, Ab 12.5 nM [3]: 0.074
A405, TF/FVIIa/FX complex assay, Ab 25 nM [3]: 0.273
A405, TF/FVIIa/FX complex assay, Ab 50 nM [3]: 0.6
A405, TF/FVIIa/FX complex assay, Ab 100 nM [3]: 0.81
FXa assay % of FXa alone, 2.5 nM Ab, 10 nM TFPI [4]: 6.9%
FXa assay % of FXa alone, 5 nM Ab, 10 nM TFPI [4]: 18.8%
FXa assay % of FXa alone, 10 nM Ab, 10 nM TFPI [4]: 55.2%
FXa assay % of FXa alone, 20 nM Ab, 10 nM TFPI [4]: 78%
FXa assay OD, 2.5 nM Ab, 10 nM TFPI [4]: 0.0335
FXa assay OD, 5 nM Ab, 10 nM TFPI [4]: 0.091
FXa assay OD, 10 nM Ab, 10 nM TFPI [4]: 0.267
FXa assay OD, 20 nM Ab, 10 nM TFPI [4]: 0.378
FXa assay % of FXa alone, 2.5 nM Ab, 10 nM TFPI [5]: 5.4%
FXa assay % of FXa alone, 5 nM Ab, 10 nM TFPI [5]: 8%
FXa assay % of FXa alone, 10 nM Ab, 10 nM TFPI [5]: 30.7%
FXa assay % of FXa alone, 20 nM Ab, 10 nM TFPI [5]: 58.5%
FXa assay OD, 2.5 nM Ab, 10 nM TFPI [5]: 0.041
FXa assay OD, 5 nM Ab, 10 nM TFPI [5]: 0.061
FXa assay OD, 10 nM Ab, 10 nM TFPI [5]: 0.234
FXa assay OD, 20 nM Ab, 10 nM TFPI [5]: 0.446
FXa assay % of FXa alone, 2.5 nM Ab, 10 nM TFPI [6]: 7.2%
FXa assay % of FXa alone, 5 nM Ab, 10 nM TFPI [6]: 10.2%
FXa assay % of FXa alone, 10 nM Ab, 10 nM TFPI [6]: 43.9%
FXa assay % of FXa alone, 20 nM Ab, 10 nM TFPI [6]: 66.9%
FXa assay OD, 2.5 nM Ab, 10 nM TFPI [6]: 0.0855
FXa assay OD, 5 nM Ab, 10 nM TFPI [6]: 0.122
FXa assay OD, 10 nM Ab, 10 nM TFPI [6]: 0.522
FXa assay OD, 20 nM Ab, 10 nM TFPI [6]: 0.797
FXa assay % of FXa alone, 2.5 nM Ab, 10 nM TFPI [7]: 6.9%
FXa assay % of FXa alone, 5 nM Ab, 10 nM TFPI [7]: 20%
FXa assay % of FXa alone, 10 nM Ab, 10 nM TFPI [7]: 45.4%
FXa assay % of FXa alone, 20 nM Ab, 10 nM TFPI [7]: 72.9%
FXa assay OD, 2.5 nM Ab, 10 nM TFPI [7]: 0.057
FXa assay OD, 5 nM Ab, 10 nM TFPI [7]: 0.165
FXa assay OD, 10 nM Ab, 10 nM TFPI [7]: 0.375
FXa assay OD, 20 nM Ab, 10 nM TFPI [7]: 0.603
B1: clone T417 (antibody, V domains shown)
VH: EVHLVESGGDLVKPGGSLKLSCAASGFTFSSYAMSWVRQTPDKRLEWVATITTGGSYTYYPDSVKGRFTISRDNAKNTLYLQMSSLKSEDTAMYYCARQDGNFLMDYWGQGTTVTVSS
VL: not shown
notes: also called T417 chimeric antibody
